Data from US20240092897A1 (SHANGHAI JMT BIO TECHNOLOGY, published 2024).

T1: Human Siglec-15, His Tag (human Siglec-15 full-length extracellular domain linked with His tag) (human, UniProt Q6ZMC9 20-263)
T1 construct: Bought from ACROBiosystems; also called Siglec-15 protein; SG5-H52H3
T1 sequence: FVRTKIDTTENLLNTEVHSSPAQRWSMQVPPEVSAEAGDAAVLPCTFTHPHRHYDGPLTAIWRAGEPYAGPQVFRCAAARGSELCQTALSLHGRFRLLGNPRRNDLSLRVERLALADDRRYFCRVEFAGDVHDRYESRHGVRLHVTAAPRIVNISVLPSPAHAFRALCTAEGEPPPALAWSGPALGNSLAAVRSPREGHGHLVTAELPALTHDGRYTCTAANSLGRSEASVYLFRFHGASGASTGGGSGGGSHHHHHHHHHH

T2: Human Siglec-15 overexpressed on HEK293T cells (HEK293T-hu-S15) (human, UniProt Q6ZMC9 20-328)
T2 construct: whole, on cells; also called HEK293T-hu-S15 cell line
T2 sequence (looked up): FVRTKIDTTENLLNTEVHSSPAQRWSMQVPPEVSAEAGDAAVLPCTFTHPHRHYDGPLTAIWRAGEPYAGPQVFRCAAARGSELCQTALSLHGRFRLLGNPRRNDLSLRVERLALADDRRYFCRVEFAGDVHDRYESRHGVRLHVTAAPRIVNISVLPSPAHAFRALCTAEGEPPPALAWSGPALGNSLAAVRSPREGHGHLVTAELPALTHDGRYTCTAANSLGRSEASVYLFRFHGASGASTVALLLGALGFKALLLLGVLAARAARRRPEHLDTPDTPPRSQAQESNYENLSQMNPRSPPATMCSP

T3: Cynomolgus Monkey Siglec-15 full-length extracellular domain linked with His tag (Cynomolgus Monkey)
T3 construct: Bought from ACROBiosystems; also called SG5-052H6
T3 chain: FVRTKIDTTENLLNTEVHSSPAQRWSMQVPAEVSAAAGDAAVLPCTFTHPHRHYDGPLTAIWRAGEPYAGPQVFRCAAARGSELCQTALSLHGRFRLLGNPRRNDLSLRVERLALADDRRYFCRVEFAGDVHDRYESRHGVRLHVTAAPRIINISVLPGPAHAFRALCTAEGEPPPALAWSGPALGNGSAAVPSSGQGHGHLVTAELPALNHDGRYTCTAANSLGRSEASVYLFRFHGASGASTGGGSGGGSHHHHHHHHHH


Assays:
[1] = biological target: T1, Human Siglec-15, His Tag (human …); assay: SPR Biacore, antibody captured by anti-human Fc on CM5, Siglec-15 protein as analyte
[2] = biological target: T2, Human Siglec-15 overexpressed on …; assay: flow cytometry on HEK293T-hu-S15 cells, detection with anti-human IgG (Fc specific)-FITC, average fluorescence intensity
Description: HEK293T cell line overexpressing Siglec-15 (HEK293T-hu-S15) was purchased from KYinno Biotechnology Co., Ltd (Beijing, China) under Catalog #KC-1314. Purified anti-Siglec-15 chimeric antibodies were diluted at a gradient of 100 nM and incubated with HEK293T-hu-S15 cells at 4° C. for 30 min. Flow cytometry was performed after addition of anti-human IgG (Fc specific)-FITC (cat. #F9512) and incubation for 30 min.

[3] = biological target: T1, Human Siglec-15, His Tag (human …); assay: SPR Biacore 8K, antibody captured by anti-human Fc, Siglec-15 His as analyte
Description: Affinity analysis was performed using Biacore8K, and a CM5 chip immobilized with anti-human Fc antibody was used to capture the antibodies tested. The stock solutions of the antibodies to be tested were diluted to 5 μg/mL, and injected sequentially into the experimental channels at a flow rate of 10 μL/min at about 500 RU. The analyte was Human Siglec-15, His Tag (Cat. #SG5-H52H3), the diluted human Siglec-15 protein was injected sequentially into the experimental channels and the control channel at a flow rate of 30 μL/min and allowing for a binding time of 150 s and a dissociation time of 700 s. The KD value of each antibody was calculated using Biacore 8K analysis software.

[4] = biological target: T3, Cynomolgus Monkey Siglec-15 full-length …; assay: ELISA, coated antigen
Description: (§1) The variable regions from the antibodies produced by the hybridomas were combined with human IgG1 (N297A) constant regions to generate chimeric antibodies, named as 21F6C6, 75E1F2, 124B11F6, 174C11C9, and 255C12B10, respectively. Binding activity assays were performed on the chimeric antibodies using Siglec-15 proteins from different species, in which human, mouse and Cynomolgus Monkey Siglec-15 proteins were purchased from ACROBiosystems (Beijing, China). Antigen was coated at 0.5 μg/ml, and antibodies were diluted starting from 1 μg/ml and incubated with antigen. Horseradish peroxidase-labeled Anti-Human IgG antibody was used as the secondary antibody and OD₄₅₀ values were read after adding the substrate.

[5] = biological target: T1, Human Siglec-15, His Tag (human …); assay: ELISA, coated antigen
Description: as §1

[6] = biological target: T1, Human Siglec-15, His Tag (human …); assay: Octet BLI epitope binning, Siglec-15 His on HIS1K sensor; competitor 255C12B10
Description: (§2) Epitope binning assays were performed using the Octet RED96e (ForteBio) System for the antibodies tested. Human Siglec-15, His Tag (Cat. No. SG5-H52H3) (5 μg/mL) was captured by the HIS1K biosensor and bound to primary antibody (100 nM) for 180 s. Then, the Human Siglec-15, His Tag (antigen)-primary antibody was bound to secondary antibody (100 nM) on the biosensors for 90 s. Data analysis was performed using Octet RED96e (ForteBio) analysis software.

[7] = biological target: T1, Human Siglec-15, His Tag (human …); assay: Octet BLI epitope binning, Siglec-15 His on HIS1K sensor; competitor 75E1F2
Description: as §2

[8] = biological target: T1, Human Siglec-15, His Tag (human …); assay: Octet BLI epitope binning, Siglec-15 His on HIS1K sensor; competitor 124B11F6
Description: as §2

[9] = biological target: T1, Human Siglec-15, His Tag (human …); assay: Octet BLI epitope binning, Siglec-15 His on HIS1K sensor; competitor 174C11C9
Description: as §2

Row | Binder | Kd [1] | koff [1] | kon [1] | also measured
1 | 124B11F6-hH1L1 (antibody, IgG1, V domains shown, Humanized; hIgG1 heavy chain constant region, Lambda-C2 light chain constant region) VH: QVQLVQSGAEVKKPGASVKVSCKASVFNIKDYYMHWVRQAPGQGLEWIGRIDPEDDKTKYAPKFQGRATITADTSTNTAYLELSSLRSEDTAVYYCVRGWLGYIMDFWGQGTTVTVSS VL: QLVLTQSPSASFSLGASAKLTCTLSSQHSTYTIDWYQQQPEKGPRYVMELKEDGSHSTGDGIPDRFSGSSSGAERYLTISSIQSEDEADYICGVGATIKEQFVYVFGGGTKVTVL | 0.109 nM | 0.000127 s⁻¹ | 1.17e+06 M⁻¹ s⁻¹ | –
2 | 124B11F6-hH2L2 (antibody, IgG1, V domains shown, Humanized; hIgG1, Lambda) VH: QVQLVQSGAEVKKPGASVKVSCKASVFNIKDYYMHWVRQAPGQGLEWIGRIDPEDDKTKYAPKFQGRVTITADTSTSTAYLELSSLRSEDTAVYYCVRGWLGYIMDFWGQGTTVTVSS VL: QLVLTQSPSASASLGASVKLTCTLSSQHSTYTIDWYQQQPEKGPRYVMELKEDGSHSTGDGIPDRFSGSSSGAERYLTISSLQSEDEADYICGVGATIKEQFVYVFGGGTKVTVL | 0.202 nM | 0.000224 s⁻¹ | 1.11e+06 M⁻¹ s⁻¹ | –
3 | 21F6C6-hH2L3 (antibody, IgG1, V domains shown, Humanized; hIgG1, Kappa) VH: EVQLVESGGGLVKPGGSLRLSCAASGFTFSSYAMSWVRQAPGKGLEWVATISSGGSLIYYADSVTGRFTISRDNAKNTLYLQMNSLRAEDTAVYYCVRHGYYYGDSTLYYAMDYWGQGTTVTVSS VL: DIQLTQSPSSLSASVGDRVTITCRASQSVDYDGDSYMNWYQQKPGKAPKLLIYAASNLESGVPSRFSGSGSGTDFTLTISSLQPEDFATYYCQQSNEAPLTFGQGTKLEIK | 0.0724 nM | 0.000353 s⁻¹ | 4.87e+06 M⁻¹ s⁻¹ | –
4 | 21F6C6-hH1L1 (antibody, IgG1, V domains shown, Humanized; hIgG1 heavy chain constant region, Kappa light chain constant region) VH: EVQLVESGGGLVKPGGSLRLSCAASGFTFSSYAMSWVRQAPGKGLEWVATISSGGSLIYYPDSVTGRFTISRDNAKSTLYLQMNSLRAEDTAVYYCVRHGYYYGDSTLYYAMDYWGQGTTVTVSS VL: DIQLTQSPSSLSASVGDRATITCRASQSVDYDGDSYMNWYQQKPGKAPKLLIYAASNLESGIPARFSGSGSGTDFTLTISSVQPEDFATYYCQQSNEAPLTFGQGTKLEIK | 0.0806 nM | 0.000341 s⁻¹ | 4.23e+06 M⁻¹ s⁻¹ | –
5 | 21F6C6-hH2L4V (antibody, IgG1, V domains shown, Humanized; hIgG1, Kappa) VH: EVQLVESGGGLVKPGGSLRLSCAASGFTFSSYAMSWVRQAPGKGLEWVATISSGGSLIYYADSVTGRFTISRDNAKNTLYLQMNSLRAEDTAVYYCVRHGYYYGDSTLYYAMDYWGQGTTVTVSS VL: DIQMTQSPSSLSASVGDRVTITCRASQSVDYEGDSYMNWYQQKPGKAPKLLIYAASNLQSGVPSRFSGSGSGTDFTLTISSLQPEDFATYYCQQSNEAPLTFGQGTKLEIK | 0.114 nM | 0.000184 s⁻¹ | 1.61e+06 M⁻¹ s⁻¹ | –
6 | 21F6C6-hH2L4 (antibody, IgG1, V domains shown, Humanized; hIgG1, Kappa) VH: EVQLVESGGGLVKPGGSLRLSCAASGFTFSSYAMSWVRQAPGKGLEWVATISSGGSLIYYADSVTGRFTISRDNAKNTLYLQMNSLRAEDTAVYYCVRHGYYYGDSTLYYAMDYWGQGTTVTVSS VL: DIQMTQSPSSLSASVGDRVTITCRASQSVDYDGDSYMNWYQQKPGKAPKLLIYAASNLQSGVPSRFSGSGSGTDFTLTISSLQPEDFATYYCQQSNEAPLTFGQGTKLEIK | 0.0856 nM | 0.000414 s⁻¹ | 4.84e+06 M⁻¹ s⁻¹ | –
7 | 21F6C6-hH2L2 (antibody, IgG1, V domains shown, Humanized; hIgG1, Kappa) VH: EVQLVESGGGLVKPGGSLRLSCAASGFTFSSYAMSWVRQAPGKGLEWVATISSGGSLIYYADSVTGRFTISRDNAKNTLYLQMNSLRAEDTAVYYCVRHGYYYGDSTLYYAMDYWGQGTTVTVSS VL: DIQLTQSPSSLSASVGDRATITCRASQSVDYDGDSYMNWYQQKPGKAPKLLIYAASNLESGVPSRFSGSGSGTDFTLTISSVQPEDFATYYCQQSNEAPLTFGQGTKLEIK | 0.0683 nM | 0.000314 s⁻¹ | 4.59e+06 M⁻¹ s⁻¹ | –
8 | 21F6C6 chimeric antibody (antibody, human IgG1, V domains shown, also called 21F6C6-mHL) VH: EVMLVESGGGLVKPGGSLKLSCAASGFTFSSYAMSWVRQSPEKRLEWVATISSGGSLIYYPDSVTGRFTISRDNAKSTLYLQMSSLRSEDTAMYYCVRHGYYYGDSTLYYAMDYWGPGTSVTVSS VL: DIVLTQSPASLAVSLGQRATISCKASQSVDYDGDSYMNWYQQKPGQPPKLLIYAASNLESGIPARFSGSGSGTDFTLNIHPVEEEDAATYYCQQSNEAPLTFGAGTKLELK | 0.0684 nM | 0.000375 s⁻¹ | 5.49e+06 M⁻¹ s⁻¹ | EC50 [2]: 1.19 nM; Kd [3]: 0.0473 nM; koff [3]: 0.000187 s⁻¹; kon [3]: 3.95e+06 M⁻¹ s⁻¹; EC50 [4]: 6.61 ng/mL; EC50 [5]: 4.81 ng/mL; cross-competition score [6]: 56.8%; cross-competition score [7]: 4.92%; cross-competition score [8]: 101%; cross-competition score [9]: 4.98%
9 | 174C11C9-hH2L2 (antibody, IgG1, V domains shown, Humanized; hIgG1, Kappa) VH: QVQLVQSGAEVKKPGASVKVSCKASGYIFTDYYMNWVRQAPGQGLEWIGVFNPYSGGISYNQKFKGRVTLTVDTSTSTAYMELSSLRSEDTAVYYCARDYYYLSSHGFYALDYWGQGTTVTVSS VL: DIQLTQSPSSLSASVGDRVTITCRASESVDSYGNSFIHWYQQKPGKAPKLLMYRASNLESGIPSRFSGSGSGTDFTLTISSLQPEDFATYYCQQSNEDPLTFGQGTKLEIK | 0.325 nM | 0.000447 s⁻¹ | 1.37e+06 M⁻¹ s⁻¹ | –
10 | 174C11C9-hH3L3 (antibody, IgG1, V domains shown, Humanized; hIgG1, Kappa) VH: QVQLVQSGAEVKKPGASVKVSCKASGYIFTDYYMNWVRQAPGQGLEWIGVFNPYSGGISYAQKFKGRVTLTVDTSTSTAYMELSSLRSEDTAVYYCARDYYYLSSHGFYALDYWGQGTTVTVSS VL: DIQLTQSPSSLSASVGDRVTITCRASESVDSYGNSFIHWYQQKPGKAPKLLMYRASNLESGVPSRFSGSGSGTDFTLTISSLQPEDFATYYCQQSNEDPLTFGQGTKLEIK | 0.614 nM | 0.000482 s⁻¹ | 785000 M⁻¹ s⁻¹ | –
